Here are results for four substances from US20220010008A1.

Experiment [1] addresses recombinant human IL-5 protein (human) (UniProt P05113). The experiment can be described thus: cell-based or functional assay.
The target is the same in experiment [2]. The experiment can be described thus: ELISA, biotin-human IL-5 on streptavidin plate, Ab 0.0002 nM. (In general: ELISA stands for enzyme-linked immunosorbent assay.)
Experiment [3] has the same target. The experiment can be described thus: ELISA, biotin-human IL-5 on streptavidin plate, Ab 0.0009 nM.
Experiment [4] has the same target. The experiment can be described thus: ELISA, biotin-human IL-5 on streptavidin plate, Ab 0.0043 nM.
The target is the same in experiment [5]. The experiment can be described thus: ELISA, biotin-human IL-5 on streptavidin plate, Ab 0.0213 nM.
Experiment [6] has the same target. The experiment can be described thus: ELISA, biotin-human IL-5 on streptavidin plate, Ab 0.1067 nM.
Experiment [7] shares this target. The experiment can be described thus: ELISA, biotin-human IL-5 on streptavidin plate, Ab 0.5333 nM.
The target is the same in experiment [8]. The experiment can be described thus: ELISA, biotin-human IL-5 on streptavidin plate, Ab 2.6667 nM.
Experiment [9] shares this target. The experiment can be described thus: ELISA, biotin-human IL-5 on streptavidin plate, Ab 13.3333 nM.
Experiment [10] has the same target. The experiment can be described thus: FACS blocking: biotin-IL-5 bound to CHOK1 IL-5Ra/CSF2RB cells, Ab 0.0004 nM.
For experiment [11] the target is unchanged. The experiment can be described thus: FACS blocking: biotin-IL-5 bound to CHOK1 IL-5Ra/CSF2RB cells, Ab 0.0021 nM.
The target is the same in experiment [12]. The experiment can be described thus: FACS blocking: biotin-IL-5 bound to CHOK1 IL-5Ra/CSF2RB cells, Ab 0.0107 nM.
The target is the same in experiment [13]. The experiment can be described thus: FACS blocking: biotin-IL-5 bound to CHOK1 IL-5Ra/CSF2RB cells, Ab 0.0533 nM.
The target is the same in experiment [14]. The experiment can be described thus: FACS blocking: biotin-IL-5 bound to CHOK1 IL-5Ra/CSF2RB cells, Ab 0.2667 nM.
For experiment [15] the target is unchanged. The experiment can be described thus: FACS blocking: biotin-IL-5 bound to CHOK1 IL-5Ra/CSF2RB cells, Ab 1.3333 nM.
For experiment [16] the target is unchanged. The experiment can be described thus: FACS blocking: biotin-IL-5 bound to CHOK1 IL-5Ra/CSF2RB cells, Ab 6.6667 nM.
For experiment [17] the target is unchanged. The experiment can be described thus: FACS blocking: biotin-IL-5 bound to CHOK1 IL-5Ra/CSF2RB cells, Ab 33.3333 nM.
For experiment [18], the target named is recombinant human IL-5 protein with His tag (human) (UniProt P05113). The experiment can be described thus: ELISA, biotin-human IL-5 on streptavidin; antibody 0.0002 nM.
For experiment [19] the target is unchanged. The experiment can be described thus: ELISA, biotin-human IL-5 on streptavidin; antibody 0.0009 nM.
The target is the same in experiment [20]. The experiment can be described thus: ELISA, biotin-human IL-5 on streptavidin; antibody 0.0043 nM.
Experiment [21] has the same target. The experiment can be described thus: ELISA, biotin-human IL-5 on streptavidin; antibody 0.0213 nM.
Experiment [22] shares this target. The experiment can be described thus: ELISA, biotin-human IL-5 on streptavidin; antibody 0.1067 nM.
Experiment [23] shares this target. The experiment can be described thus: ELISA, biotin-human IL-5 on streptavidin; antibody 0.5333 nM.
Experiment [24] shares this target. The experiment can be described thus: ELISA, biotin-human IL-5 on streptavidin; antibody 2.6667 nM.
Experiment [25] shares this target. The experiment can be described thus: ELISA, biotin-human IL-5 on streptavidin; antibody 13.3333 nM.
Experiment [26] has the same target. The experiment can be described thus: cell-based or functional assay.
Experiment [27] has as its target recombinant human IL-5 protein (human) (UniProt P05113). The experiment can be described thus: FACS, biotin-IL-5 bound to CHOK1 hIL-5Ra/CSF2RB cells with Ab 0.0004 nM.
Experiment [28] shares this target. The experiment can be described thus: FACS, biotin-IL-5 bound to CHOK1 hIL-5Ra/CSF2RB cells with Ab 0.0021 nM. On the technique in general: In flow cytometry, cells or beads pass a laser one at a time.
Experiment [29] shares this target. The experiment can be described thus: FACS, biotin-IL-5 bound to CHOK1 hIL-5Ra/CSF2RB cells with Ab 0.0107 nM.
Experiment [30] has the same target. The experiment can be described thus: FACS, biotin-IL-5 bound to CHOK1 hIL-5Ra/CSF2RB cells with Ab 0.0533 nM.
The target is the same in experiment [31]. The experiment can be described thus: FACS, biotin-IL-5 bound to CHOK1 hIL-5Ra/CSF2RB cells with Ab 0.2667 nM.
For experiment [32] the target is unchanged. The experiment can be described thus: FACS, biotin-IL-5 bound to CHOK1 hIL-5Ra/CSF2RB cells with Ab 1.3333 nM.
Experiment [33] has the same target. The experiment can be described thus: FACS, biotin-IL-5 bound to CHOK1 hIL-5Ra/CSF2RB cells with Ab 6.6667 nM.
Experiment [34] has the same target. The experiment can be described thus: FACS, biotin-IL-5 bound to CHOK1 hIL-5Ra/CSF2RB cells with Ab 33.3333 nM.

Values joined by “and” are separate entries in the source; they are usually repeats but may differ in a detail not shown here. Equal entries are not always repeated.

Take hIgG control (human IgG) (antibody): in experiment [1], the RLU, CTLL-2 proliferation with IL-5, Ab 0.000170667 nM was 57400 RLU and 51000 RLU; the RLU, CTLL-2 proliferation with IL-5, Ab 0.000853333 nM is 58600 RLU and 53800 RLU; the RLU, CTLL-2 proliferation with IL-5, Ab 0.004266667 nM was 57900 RLU and 48200 RLU; the RLU, CTLL-2 proliferation with IL-5, Ab 0.02133333 nM is 59800 RLU and 55900 RLU. Also, in experiment [1], the RLU, CTLL-2 proliferation with IL-5, Ab 0.1066667 nM was 58200 RLU and 53500 RLU; the RLU, CTLL-2 proliferation with IL-5, Ab 0.5333334 nM was 56200 RLU and 50500 RLU; the RLU, CTLL-2 proliferation with IL-5, Ab 2.666667 nM is 51200 RLU and 46200 RLU; the RLU, CTLL-2 proliferation with IL-5, Ab 13.33333 nM was 45800 RLU and 46300 RLU. Moreover, in [1], the RLU, CTLL-2 proliferation with IL-5, Ab 66.66666 nM is 43200 RLU and 34400 RLU; the RLU, CTLL-2 proliferation with IL-5, Ab 3.41333E-05 nM is 58600 RLU and 55000 RLU; the RLU, TF-1 proliferation with IL-5, Ab 0.00001 nM is 113000 RLU and 118000 RLU; the RLU, TF-1 proliferation with IL-5, Ab 0.00003 nM was 112000 RLU and 116000 RLU. Also, in experiment [1], the RLU, TF-1 proliferation with IL-5, Ab 0.00017 nM was 112000 RLU and 121000 RLU; the RLU, TF-1 proliferation with IL-5, Ab 0.00085 nM is 115000 RLU and 117000 RLU; the RLU, TF-1 proliferation with IL-5, Ab 0.00427 nM is 116000 RLU and 127000 RLU; the RLU, TF-1 proliferation with IL-5, Ab 0.02133 nM was 108000 RLU and 131000 RLU. In addition, in [1], the RLU, TF-1 proliferation with IL-5, Ab 0.10667 nM is 108000 RLU and 114000 RLU; the RLU, TF-1 proliferation with IL-5, Ab 0.53333 nM was 103000 RLU and 106000 RLU; the RLU, TF-1 proliferation with IL-5, Ab 2.66667 nM was 101000 RLU and 106000 RLU; the RLU, TF-1 proliferation with IL-5, Ab 13.33333 nM was 101000 RLU and 102000 RLU. Besides, in [2], the OD450 nm is 0.082 OD450 nm and 0.08 OD450 nm. The OD450 nm in [3] was 0.08 OD450 nm and 0.078 OD450 nm. Besides, the OD450 nm in experiment [4] is 0.074 OD450 nm and 0.077 OD450 nm. In addition, the OD450 nm in experiment [5] was 0.079 OD450 nm and 0.076 OD450 nm. For the same substance, in [6], the OD450 nm was 0.078 OD450 nm. The OD450 nm in experiment [7] was 0.079 OD450 nm and 0.078 OD450 nm. In addition, the OD450 nm in experiment [8] was 0.09 OD450 nm and 0.088 OD450 nm. In experiment [9], the OD450 nm was 0.172 OD450 nm and 0.07 OD450 nm. The Fluorescence intensity in experiment [10] is 88 MFI. In [11], the Fluorescence intensity was found to be 83 MFI. The Fluorescence intensity in [12] worked out at 85 MFI. The Fluorescence intensity in [13] came out at 86 MFI. For the same substance, the Fluorescence intensity in experiment [14] worked out at 88 MFI. The Fluorescence intensity in [15] was 84 MFI. Moreover, in experiment [16], the Fluorescence intensity was determined as 83 MFI. The Fluorescence intensity in experiment [17] amounted to 84 MFI.
Take mIgG control (antibody): the OD450 nm in experiment [18] is 0.076 and 0.075; in [19] it was 0.075; in [20], 0.078 and 0.072; in experiment [21], 0.074 and 0.079; in experiment [22], 0.08 and 0.079; in experiment [23], 0.08 and 0.077. Also, the OD450 nm is 0.079 in [24]; 0.108 and 0.115 in [25].
Turning to Mepolizumab (antibody), the TF1 (IC50), TF1 proliferation induced by IL-5 in experiment [26] was 10 pM.
mIgG control (mouse IgG) (antibody): in experiment [1], the RLU, CTLL-2 cell proliferation stimulated by IL-5, Ab conc. 0.000170667 nM was 57400 RLU and 51000 RLU; the RLU, CTLL-2 cell proliferation stimulated by IL-5, Ab conc. 0.000853333 nM was 58600 RLU and 53800 RLU; the RLU, CTLL-2 cell proliferation stimulated by IL-5, Ab conc. 0.004266667 nM is 57900 RLU and 48200 RLU; the RLU, CTLL-2 cell proliferation stimulated by IL-5, Ab conc. 0.02133333 nM was 59800 RLU and 55900 RLU. For the same substance, in experiment [1], the RLU, CTLL-2 cell proliferation stimulated by IL-5, Ab conc. 0.1066667 nM was 58200 RLU and 53500 RLU; the RLU, CTLL-2 cell proliferation stimulated by IL-5, Ab conc. 0.5333334 nM is 56200 RLU and 50500 RLU; the RLU, CTLL-2 cell proliferation stimulated by IL-5, Ab conc. 2.666667 nM was 51200 RLU and 46200 RLU; the RLU, CTLL-2 cell proliferation stimulated by IL-5, Ab conc. 13.33333 nM is 45800 RLU and 46300 RLU. In experiment [1], the RLU, CTLL-2 cell proliferation stimulated by IL-5, Ab conc. 66.66666 nM is 43200 RLU and 34400 RLU; the RLU, CTLL-2 cell proliferation stimulated by IL-5, Ab conc. 3.41333E-05 nM was 58600 RLU and 55000 RLU; the RLU, TF-1 cell proliferation stimulated by IL-5, Ab conc. 0.00001 nM is 113000 RLU and 118000 RLU; the RLU, TF-1 cell proliferation stimulated by IL-5, Ab conc. 0.00003 nM is 112000 RLU and 116000 RLU. Besides, in experiment [1], the RLU, TF-1 cell proliferation stimulated by IL-5, Ab conc. 0.00017 nM is 112000 RLU and 121000 RLU; the RLU, TF-1 cell proliferation stimulated by IL-5, Ab conc. 0.00085 nM was 115000 RLU and 117000 RLU; the RLU, TF-1 cell proliferation stimulated by IL-5, Ab conc. 0.00427 nM was 116000 RLU and 127000 RLU; the RLU, TF-1 cell proliferation stimulated by IL-5, Ab conc. 0.02133 nM was 108000 RLU and 131000 RLU. Moreover, in [1], the RLU, TF-1 cell proliferation stimulated by IL-5, Ab conc. 0.10667 nM was 108000 RLU and 114000 RLU; the RLU, TF-1 cell proliferation stimulated by IL-5, Ab conc. 0.53333 nM was 103000 RLU and 106000 RLU; the RLU, TF-1 cell proliferation stimulated by IL-5, Ab conc. 2.66667 nM is 101000 RLU and 106000 RLU; the RLU, TF-1 cell proliferation stimulated by IL-5, Ab conc. 13.33333 nM is 101000 RLU and 102000 RLU. Besides, the Fluorescence intensity in experiment [27] was 86. In addition, the Fluorescence intensity in [28] is 81. Besides, the Fluorescence intensity in experiment [29] is 83. Also, the Fluorescence intensity in experiment [30] was 83. Further, in [31], the Fluorescence intensity was 84. Besides, the Fluorescence intensity in experiment [32] was determined as 83. Further, the Fluorescence intensity in experiment [33] is 85. For the same substance, the Fluorescence intensity in [34] amounted to 80.
